# Measurements: patent publication US8188039 (ARK THERAPEUTICS GROUP, dated 2012)
# Target: the molecule itself
# Test: homodimer formation, SDS-PAGE on non-reducing conditions
# Description: Purified proteins were analyzed by SDS-PAGE in both denaturing and non-denaturing conditions, staining the gels with Silver Snap Stain KitII (Pierce) or Page Blue Protein Staining Solution (Fermentas). Alternatively, proteins were transferred to nitrocellulose membrane and detected using a VEGF-D monoclonal antibody (MAB286, R&D Systems).
# Covalent dimer formation: The ability of VEGF-$D^{\Delta N \Delta C}$, VEGF-$D^{\Delta N \Delta C}$25A and VEGF-$D^{\Delta N \Delta C}$53A to form covalent dimers was evaluated by SDS-PAGE on non-reducing conditions. […] As expected, covalent dimer formation of VEGF-$D^{\Delta N \Delta C}$53A was hindered.
protein,measurement,value
"VEGF-D^ΔNΔC (ligand, not shown: small tags and cut ends, Amino acids 93-201 of wild-type VEGF-D with N-terminal Flag-tag and C-terminal 6xHis; found partially as a covalent dimer, otherwise non-covalent dimer or monomer; also called mature form of VEGF-D; native VEGF-D^ΔNΔC) FYDIETLKVIDEEWQRTQCSPRETCVEVASELGKSTNTFFKPPCVNVFRCGGCCNEESLICMNTSTSYISKQLFEISVPLTSVPELVPVKVANHTGCKCLPTAPRHPYSHHHHHH",binding result,binds
"VEGF-D^ΔNΔC25A (ligand, not shown: small tags and cut ends, Formed more covalent dimer than the native form; also called Cys25 to Ala mutant of VEGF-D^ΔNΔC) FYDIETLKVIDEEWQRTQCSPRETAVEVASELGKSTNTFFKPPCVNVFRCGGCCNEESLICMNTSTSYISKQLFEISVPLTSVPELVPVKVANHTGCKCLPTAPRHPYSHHHHHH",binding result,binds
